In test [1] the target is T1, human serum albumin (human, UniProt P02768 25-609).
T1 construct: Analyte in SPR, titrated 50-6.25 nM; also called HSA
Put plainly: SPR, BIAcore T100; construct captured; HSA 50-6.25 nM as analyte; 1:1 model. The protocol: (§1) Single linker Fab-dsFv samples were captured to the sensor chip surface using either a human F(ab′)₂-specific goat Fab (Jackson ImmunoResearch, 109-006-097) or an in-house generated anti human CH1 monoclonal antibody. Covalent immobilisation of the capture antibody was achieved by standard amine coupling chemistry.
(§2) For kinetic assays, either a titration of human serum albumin 50-6.25 nM, or a single concentration of OX40 of 25 nM was performed. A blank flow-cell was used for reference subtraction and buffer-blank injections were included to subtract instrument noise and drift.
(§3) Kinetic parameters were determined by simultaneous global-fitting of the resulting sensorgrams to a standard 1:1 binding model using BIAcore T100 Evaluation software.
For orientation: SPR reads the build-up and loss of mass on a sensor chip optically.

The target in test [2] is T1, human serum albumin. Put plainly: SPR, BIAcore T100; construct captured; HSA 50-6.25 nM as analyte; 1:1 model; repeat at end of run. The protocol:
as §1, §2, §3

The target in test [3] is T1, human serum albumin. Put plainly: SPR, BIAcore T100; construct captured by anti-human F(ab')2 Fab or anti-CH1 mAb; HSA 50-6.25 nM as analyte; 1:1 model. As to the method: as §1, §2, §3
The target of test [4] is T1, human serum albumin. Put plainly: SPR, BIAcore T100; construct captured; HSA 50-6.25 nM as analyte; 1:1 model; plasmid ratio 1:1:1. The protocol: as §1, §2, §3
The target of test [5] is T1, human serum albumin. Put plainly: SPR, BIAcore T100; construct captured; HSA 50-6.25 nM as analyte; 1:1 model; plasmid ratio 1:1:2. As to the method: as §1, §2, §3
Test [6] addresses T1, human serum albumin. Put plainly: SPR, BIAcore T100; construct captured; HSA 50-6.25 nM as analyte; 1:1 model; plasmid ratio 2:1:2. The protocol:
as §1, §2, §3

Test [7] deals with T1, human serum albumin. Put plainly: SPR, BIAcore T100; construct captured; HSA 50-6.25 nM as analyte; 1:1 model; plasmid ratio printed 1:1:1 (second such row). As to the method:
as §1, §2, §3

A word on the Kd: it is the equilibrium constant for the complex coming apart. One may read the koff as the first-order rate constant of dissociation. A word on the kon: it is a measure of how fast the partners come together.

B1: A26Fab-645dsscFv (HC-scFv) (bispecific antibody)
heavy: EVQLVESGGGLVQPGGSLRLSCAASGFTFTNYGIHWIRQAPGKGLEWVASISPSGGLTYYRDSVKGRFTISRDDAKNSPYLQMNSLRAEDTAVYYCATGGEGIFDYWGQGTLVTVSSASTKGPSVFPLAPSSKSTSGGTAALGCLVKDYFPEPVTVSWNSGALTSGVHTFPAVLQSSGLYSLSSVVTVPSSSLGTQTYICNVNHKPSNTKVDKKVEPKSCSGGGGTGGGGSEVQLLESGGGLVQPGGSLRLSCAVSGIDLSNYAINWVRQAPGKCLEWIGIIWASGTTFYATWAKGRFTISRDNSKNTVYLQMNSLRAEDTAVYYCARTVPGYSTAPYFDLWGQGTLVTVSSGGGGSGGGGSGGGGSGGGGSDIQMTQSPSSVSASVGDRVTITCQSSPSVWSNFLSWYQQKPGKAPKLLIYEASKLTSGVPSRFSGSGSGTDFTLTISSLQPEDFATYYCGGGYSSISDTTFGCGTKVEIKRT
light: DIQMTQSPSSLSASVGDRVTITCRATQSIYNALAWYQQKPGKAPKLLIYNANTLHTGVPSRFSASGSGTDSTLTISSLQPEDFATYYCQQYYDYPLTFGGGTKVEIKRTVAAPSVFIFPPSDEQLKSGTASVVCLLNNFYPREAKVQWKVDNALQSGNSQESVTEQDSKDSTYSLSSTLTLSKADYEKHKVYACEVTHQGLSSPVTKSFNRGEC
notes: To be checked by chain lengths; also called Fab-dsscFv (HC-scFv)
Take B1: in the test with human serum albumin [1], binding was put at a Kd of 1.31 nM, the koff came out at 0.00024 s⁻¹ and the kon is 183000 M⁻¹ s⁻¹.

B2: A26Fab-645dsFv (bispecific antibody)
heavy: EVQLVESGGGLVQPGGSLRLSCAASGFTFTNYGIHWIRQAPGKGLEWVASISPSGGLTYYRDSVKGRFTISRDDAKNSPYLQMNSLRAEDTAVYYCATGGEGIFDYWGQGTLVTVSSASTKGPSVFPLAPSSKSTSGGTAALGCLVKDYFPEPVTVSWNSGALTSGVHTFPAVLQSSGLYSLSSVVTVPSSSLGTQTYICNVNHKPSNTKVDKKVEPKSCSGGGGSGGGGTGGGGSEVQLLESGGGLVQPGGSLRLSCAVSGIDLSNYAINWVRQAPGKCLEWIGIIWASGTTFYATWAKGRFTISRDNSKNTVYLQMNSLRAEDTAVYYCARTVPGYSTAPYFDLWGQGTLVTVSS
light: DIQMTQSPSSLSASVGDRVTITCRATQSIYNALAWYQQKPGKAPKLLIYNANTLHTGVPSRFSASGSGTDSTLTISSLQPEDFATYYCQQYYDYPLTFGGGTKVEIKRTVAAPSVFIFPPSDEQLKSGTASVVCLLNNFYPREAKVQWKVDNALQSGNSQESVTEQDSKDSTYSLSSTLTLSKADYEKHKVYACEVTHQGLSSPVTKSFNRGECSGGGGSGGGGSGGGGSDIQMTQSPSSVSASVGDRVTITCQSSPSVWSNFLSWYQQKPGKAPKLLIYEASKLTSGVPSRFSGSGSGTDFTLTISSLQPEDFATYYCGGGYSSISDTTFGCGTKVEIKRT
notes: Expressed in HEK293; tested as supernatant; also called Fab-dsFv; A26Fab-645dsFv (start)
In the test with human serum albumin [2], B2 registered a Kd of 3.11 nM, a koff of 0.000212 s⁻¹ and an on-rate (kon) of 68200 M⁻¹ s⁻¹. Also, in the test with human serum albumin [3], binding was put at a Kd of 2.01 nM, the koff was determined as 0.000151 s⁻¹ and the on-rate constant (kon) amounted to 75100 M⁻¹ s⁻¹.

B3: Single linker A26Fab-645dsFv (HC-vH linked) (bispecific antibody)
heavy: B2 heavy
light: B1 light
VL: DIQMTQSPSSVSASVGDRVTITCQSSPSVWSNFLSWYQQKPGKAPKLLIYEASKLTSGVPSRFSGSGSGTDFTLTISSLQPEDFATYYCGGGYSSISDTTFGCGTKVEIKRT
notes: Three polypeptides; the free 645dsvL is held to the linked 645dsvH by the disulphide G44C (vH) / G100C (vL); all are the same molecule; also called single linker Fab-dsFv (HC-vH)
For B3, the values for the Kd with human serum albumin [4], with human serum albumin [5] and with human serum albumin [6] were 1 nM, 1.11 nM and 1.05 nM, respectively. Besides, the values for the koff with human serum albumin [4], with human serum albumin [5] and with human serum albumin [6] were 0.000209 s⁻¹, 0.000234 s⁻¹ and 0.000207 s⁻¹, respectively. Moreover, the kon amounted to 209000 M⁻¹ s⁻¹ with human serum albumin [4], 211000 M⁻¹ s⁻¹ with human serum albumin [5] and 197000 M⁻¹ s⁻¹ with human serum albumin [6].

B4: Single linker A26Fab-645dsFv (LC-vL linked) (bispecific antibody)
heavy: EVQLVESGGGLVQPGGSLRLSCAASGFTFTNYGIHWIRQAPGKGLEWVASISPSGGLTYYRDSVKGRFTISRDDAKNSPYLQMNSLRAEDTAVYYCATGGEGIFDYWGQGTLVTVSSASTKGPSVFPLAPSSKSTSGGTAALGCLVKDYFPEPVTVSWNSGALTSGVHTFPAVLQSSGLYSLSSVVTVPSSSLGTQTYICNVNHKPSNTKVDKKVEPKSC
light: B2 light
VH: EVQLLESGGGLVQPGGSLRLSCAVSGIDLSNYAINWVRQAPGKCLEWIGIIWASGTTFYATWAKGRFTISRDNSKNTVYLQMNSLRAEDTAVYYCARTVPGYSTAPYFDLWGQGTLVTVSS
notes: Three polypeptides; the free 645dsvH is held to the linked 645dsvL by the disulphide G44C (vH) / G100C (vL); all are the same molecule; also called single linker Fab-dsFv (LC-vL)
Regarding B4, the Kd in the test with human serum albumin [4] came out at 3.17 nM; with human serum albumin [5], 2.31 nM; with human serum albumin [6], 1.49 nM; in the test with human serum albumin [7], 2.46 nM. Also, the koff with human serum albumin [4] stood at 0.000235 s⁻¹; in the test with human serum albumin [5] it was 0.000262 s⁻¹; in the test with human serum albumin [6], 0.000188 s⁻¹; with human serum albumin [7] it was 0.000223 s⁻¹. Also, the kon was found to be 74000 M⁻¹ s⁻¹ in the test with human serum albumin [4], 113000 M⁻¹ s⁻¹ in the test with human serum albumin [5], 126000 M⁻¹ s⁻¹ in the test with human serum albumin [6] and 91000 M⁻¹ s⁻¹ in the test with human serum albumin [7].

B5: A26Fab-645dsscFv (LC-scFv) (bispecific antibody)
heavy: B4 heavy
light: DIQMTQSPSSLSASVGDRVTITCRATQSIYNALAWYQQKPGKAPKLLIYNANTLHTGVPSRFSASGSGTDSTLTISSLQPEDFATYYCQQYYDYPLTFGGGTKVEIKRTVAAPSVFIFPPSDEQLKSGTASVVCLLNNFYPREAKVQWKVDNALQSGNSQESVTEQDSKDSTYSLSSTLTLSKADYEKHKVYACEVTHQGLSSPVTKSFNRGECSGGGGSGGGGSEVQLLESGGGLVQPGGSLRLSCAVSGIDLSNYAINWVRQAPGKCLEWIGIIWASGTTFYATWAKGRFTISRDNSKNTVYLQMNSLRAEDTAVYYCARTVPGYSTAPYFDLWGQGTLVTVSSGGGGSGGGGSGGGGSGGGGSDIQMTQSPSSVSASVGDRVTITCQSSPSVWSNFLSWYQQKPGKAPKLLIYEASKLTSGVPSRFSGSGSGTDFTLTISSLQPEDFATYYCGGGYSSISDTTFGCGTKVEIKRT
notes: To be checked by chain lengths; also called Fab-dsscFv (LC-scFv)
For the molecule B5, in the test with human serum albumin [1], the dissociation constant Kd was 1.29 nM, the koff was 0.000222 s⁻¹ and the kon came out at 172000 M⁻¹ s⁻¹.

(Values after patent US20200055959A1 (UCB, published 2020).)
